Laboratory results published in publication PMC3741272, “Identification and Characterization of a Novel aac(6′)-Iag Associated with the bla IMP-1–Integron in a Multidrug-Resistant Pseudomonas aeruginosa” (PLoS ONE, 2013).

Experiments:
Assay in all cases: purified protein
Type in all cases: biochemical, Pseudomonas aeruginosa
Settings in all cases: 200 µM acetyl-CoA, 2 mM DTNB, 50 mM phosphate pH 7.0, 37°C
[1] = tested on: NC[C@H]1O[C@H](O[C@H]2[C@H](O)[C@@H](O[C@H]3O[C@H](CO)[C@@H](O)[C@H](N)[C@H]3O)[C@H](N)C[C@@H]2N)[C@H](O)[C@@H](O)[C@@H]1O
[2] = tested on: NC[C@@H]1CC[C@@H](N)[C@@H](O[C@H]2[C@H](O)[C@@H](O[C@H]3O[C@H](CO)[C@@H](O)[C@H](N)[C@H]3O)[C@H](N)C[C@@H]2N)O1
[3] = tested on: NC[C@H]1O[C@H](O[C@H]2[C@H](O)[C@@H](O[C@H]3O[C@H](CO)[C@@H](O)[C@H](N)[C@H]3O)[C@H](N)C[C@@H]2N)[C@H](N)C[C@@H]1O
[4] = tested on: NCC[C@H](O)C(=O)N[C@@H]1C[C@H](N)[C@@H](O[C@H]2O[C@H](CN)[C@@H](O)[C@H](O)[C@H]2O)[C@H](O)[C@H]1O[C@H]1O[C@H](CO)[C@@H](O)[C@H](N)[C@H]1O
[5] = tested on: CN[C@@H]1[C@@H](O)[C@@H](O[C@@H]2[C@@H](O)[C@H](O[C@H]3OC(CN)=CC[C@H]3N)[C@@H](N)C[C@H]2N)OC[C@]1(C)O
[6] = tested on: CN[C@@H]1[C@@H](O)[C@@H](O[C@@H]2[C@@H](O)[C@H](O[C@H]3O[C@H](CN)[C@@H](O)[C@H](O)[C@H]3O)[C@@H](N)C[C@H]2NC(=O)[C@@H](O)CN)OC[C@]1(C)O
[7] = tested on: NCC[C@H](O)C(=O)N[C@@H]1C[C@H](N)[C@@H](O[C@H]2O[C@H](CN)CC[C@H]2N)[C@H](O)[C@H]1O[C@H]1O[C@H](CO)[C@@H](O)[C@H](N)[C@H]1O

Q: AAC(6′)-Iag (Pseudomonas aeruginosa) was tested. Which Km [1] did it give?
A: Its Km is 52.1 ± 16 µM.

Q: And the kcat [1]?
A: The kcat was 0.29 ± 0.06 s⁻¹.

Q: And the kcat/Km [1]?
A: The kcat/Km was 5600 M⁻¹ s⁻¹.

Q: And the Km [2]?
A: Its Km is 3.03 ± 0.64 µM.

Q: And the kcat [2]?
A: Its kcat is 0.194 ± 0.02 s⁻¹.

Q: What about the kcat/Km [2] of the same substance?
A: Its kcat/Km is 64000 M⁻¹ s⁻¹.

Q: And the Km [3]?
A: The Km was 3.27 ± 0.76 µM.

Q: What about the kcat [3] of the same substance?
A: The kcat was 0.15 ± 0.03 s⁻¹.

Q: What about the kcat/Km [3] of the same substance?
A: The kcat/Km was 46000 M⁻¹ s⁻¹.

Q: And the Km [4]?
A: The Km was 189 ± 108 µM.

Q: And the kcat [4]?
A: Its kcat is 0.11 ± 0.03 s⁻¹.

Q: What about the kcat/Km [4] of the same substance?
A: The kcat/Km was 780 M⁻¹ s⁻¹.

Q: What about the Km [5] of the same substance?
A: The Km was 8.81 ± 1.2 µM.

Q: And the kcat [5]?
A: Its kcat is 0.745 ± 0.08 s⁻¹.

Q: And the kcat/Km [5]?
A: Its kcat/Km is 85000 M⁻¹ s⁻¹.

Q: And the Km [6]?
A: Its Km is 209 ± 88 µM.

Q: What about the kcat [6] of the same substance?
A: Its kcat is 0.10 ± 0.03 s⁻¹.

Q: What about the kcat/Km [6] of the same substance?
A: Its kcat/Km is 520 M⁻¹ s⁻¹.

Q: And the Km [7]?
A: Its Km is 9.9 ± 1.2 µM.

Q: And the kcat [7]?
A: Its kcat is 0.79 ± 0.07 s⁻¹.

Q: What about the kcat/Km [7] of the same substance?
A: Its kcat/Km is 80000 M⁻¹ s⁻¹.
